Substitutions are numbered along the chain they refer to.
T1: CTLA4-his (UniProt P16410 36-161, limits assumed)
T1 construct: construct not described; also called Ag CTLA4-his; Antigen CTLA4-his; not shown: his tag
T1 sequence (looked up): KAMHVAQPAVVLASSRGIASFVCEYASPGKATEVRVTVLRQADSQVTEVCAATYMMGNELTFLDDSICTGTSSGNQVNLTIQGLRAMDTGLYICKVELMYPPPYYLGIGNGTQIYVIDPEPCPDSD

T2: CTLA4-Fc (UniProt P16410 36-161, limits assumed)
T2 sequence (looked up): T1 sequence (looked up)

T3: cyno Macaque CTLA-4 (cyno Macaque, UniProt G7PL88 36-161)
T3 construct: ELISA antigen; construct not described; also called CynoCTLA-4; cyno CTLA-4
T3 sequence: T1 sequence (looked up) with S14N, I18T, L106M

T4: human CTLA-4 (human, UniProt P16410 36-161, limits assumed)
T4 construct: also called HuCTLA-4; human cytotoxic T lymphocyte antigen-4
T4 sequence: T1 sequence (looked up)

B1: Humanized Ab 11 (VH4 + VL2) (antibody, human IgG1, kappa)
heavy: not shown
light: DIVMTQSPLSLPVTPGEPASISCRSSKSLLHSNGITYLYWYLQKPGQSPQLLIYQMSNLASGVPDRFSSSGSGTDFTLKISRVEAEDVGVYYCAQNLELPLTFGGGTKVEIKRTVAAPSVFIFPPSDEQLKSGTASVVCLLNNFYPREAKVQWKVDNALQSGNSQESVTEQDSKDSTYSLSSTLTLSKADYEKHKVYACEVTHQGLSSPVTKSFNRGEC
notes: Humanized IgG1 derived from MAb A4
B2: Humanized Ab 14 (VH6 + VL3) (antibody, human IgG1, kappa, V domains shown)
VH: QVQLVQSGAEVKKPGASVKVSCKASGYKFTDHFINWVKQAPGQGLEWIGDINPNNGGTNSNQKFEGKATLTVDKSISTAYMELRRLRSDDTAVYYCARLRREYFYAMDYWGQGTLVTVSS
VL: DIVMTQSPLSLPVTPGEPASISCRSSKSLLHSNGITYLYWYLQKPGQSPQLLIYQMSNLASGVPDRFSSSGSGTDFTLKISRVEAEDVGVYYCAQNLELPLTFGGGTKLEIKR
notes: as for B1
B3: Humanized Ab 8 (VH3 + VL2) (antibody, human IgG1, kappa, V domains shown)
VH: B2 VH with K67R, A68V, K74T, R84S
VL: B2 VL with L109V
notes: Humanized IgG1 derived from MAb A4, full length, HEK293
B4: Humanized Ab 6 (VH2 + VL3) (antibody, human IgG1, kappa)
heavy: not shown
light: B1 light with V109L
notes: as for B3
B5: Humanized Ab 3 (VH1 + VL3) (antibody, human IgG1, kappa)
heavy: not shown
light: B1 light with V109L
notes: as for B3
B6: Humanized Ab 2 (VH1 + VL2) (antibody, human IgG1, kappa)
heavy: not shown
light: B1 light
notes: as for B3
B7: Humanized Ab 7 (VH3 + VL1) (antibody, human IgG1, kappa, V domains shown)
VH: B2 VH with K67R, A68V, K74T, R84S
VL: B2 VL with S69G, L109V
notes: as for B3
B8: Humanized Ab 1 (VH1 + VL1) (antibody, human IgG1, kappa, V domains shown)
VH: B2 VH with K38R, I48M, K67R, A68V, L70M, V72R, K74T, R84S
VL: B2 VL with S69G, L109V
notes: as for B3
B9: Humanized Ab 5 (VH2 + VL2) (antibody, human IgG1, kappa)
heavy: not shown
light: B1 light
notes: as for B3
B10: Humanized Ab 10 (VH4 + VL1) (antibody, human IgG1, kappa, V domains shown)
VH: B2 VH with V20I, K67R, K74T, R84S
VL: B2 VL with S69G, L109V
notes: as for B3
B11: Humanized Ab 13 (VH5 + VL3) (antibody, human IgG1, kappa, V domains shown)
VH: B2 VH with K12V, V20I, A40N, K67R, K74T, R84S
VL: B2 VL
notes: as for B3
B12: Humanized Ab 4 (VH2 + VL1) (antibody, human IgG1, kappa, V domains shown)
VH: B2 VH with K38R, K67R, A68V, L70M, K74T, R84S
VL: B2 VL with S69G, L109V
notes: as for B3
B13: Humanized Ab 12 (VH4 + VL3) (antibody, human IgG1, kappa)
heavy: not shown
light: B1 light with V109L
notes: as for B3
B14: MAb A5 (32G4C12) (antibody, V domains shown)
VH: QVQLQQSGPELVRPGASVKLSCKASGYTFTTYDINWVKQRPGQGLEWIGWIYPRDGSIIFNEKFKGKATLTVDTTSSTAYMELHSLTSEDSAVYFCARRGLLGPLDYWGQGTPLTVSS
VL: DIVMTQSHKFMSTSVGDRVSITCKASQDVATTVAWYQQKPGQSPKLVIYWASTRHTGVPDRFTGSGSGTDFTLTISNVQSEDLADYFCQQYSSYPTFGVGTKLELK
notes: also called murine antibody A5
B15: MAb A2 (7G10D3) (antibody, V domains shown)
VH: QIQLVQSGPELKKPGETVKISCKASGYTFTTYGMSWVKQTPGKGLKWMGWINTYSGVPTYADDFKGRFAFSLETSASTAYLQINNLKNEDTATYFCARGRDYYGSSYRLFGVWGTGTTVTVSS
VL: DIQMTQTTSSLSASLGDRVTISCRASQDISNYLNWYQQKPDGTVKLLIYYTSILNSGVPSKFSGSGSGTDYSLTISNLEQEDIATYFCQQGNTLPWTFGGGTKLEIK
notes: also called murine antibody A2
B16: MAb A3 (32G12D2) (antibody, V domains shown)
VH: QVQLQQPGAELVRPGSSVKLSCKASGYTFTSYWMHWVKQRPIQGLEWIGNIDPSDSETHYNQNFKDKATLTVDKSSSTAYLQLSSLTSEDSAVYYCARRYTSSSFDYWGQGTTLTVSS
VL: B15 VL with I21V, S30R, Y50F, I53K, N55H, K61R, S72F, T74A, W96Y
notes: also called murine antibody A3

target: T1, CTLA4-his; assay: SPR Biacore 8k, purified antibody captured on chip, CTLA4-his as analyte
Method: The affinities of purified antibody binding to CTLA4-his was determined using a Surface Plasmon Resonance (SPR) biosensor, Biacore 8k. Antibodies were immobilized on the sensor chip through capture method. Antigen CTLA4-his was used as the analyte. The data of dissociation (kd) and association (ka) rate constants were obtained using Biacore 8k evaluation software. The equilibrium dissociation constants (KD) were calculated from the ratio of kd over ka.

Row | Kd | koff | kon | Binder
1 | 0.339 nM | 0.000307 s⁻¹ | 904000 M⁻¹ s⁻¹ | B1
2 | 0.0248 nM | 1.99e-05 s⁻¹ | 802000 M⁻¹ s⁻¹ | B2

target: T1, CTLA4-his; assay: SPR Biacore T200, antibody from supernatant captured by anti-human Fc, CTLA4-his injected
Method: Affinity ranking of the fifteen humanized antibodies was determined using a Surface Plasmon Resonance (SPR) biosensor, Biacore T200 (GE Healthcare). Anti-human Fc gamma specific antibody was immobilized onto the sensor chip using amine coupling method. […] After equilibration, Ag CTLA4-his was injected for 300 seconds (association phase) followed by the injection of running buffer for 600s (dissociation phase). Responses of reference flow cell (flow cell 1) were subtracted from those of humanized antibodies flow cells during each cycle. The surface was regenerated before the injection of other humanized antibodies. The process was repeated until all antibodies are analyzed. The off-rates of humanized antibodies were obtained from fitting the experimental data locally to 1:1 interaction model using the Biacore 8K evaluation software. The antibodies were ranked by their dissociation rate constants (off-rates, kd).

Row | Kd | koff | kon | Binder
3 | 0.791 nM | 0.000523 s⁻¹ | 661000 M⁻¹ s⁻¹ | B3
4 | 1.16 nM | 0.000347 s⁻¹ | 300000 M⁻¹ s⁻¹ | B4
5 | 1.17 nM | 0.000437 s⁻¹ | 375000 M⁻¹ s⁻¹ | B5
6 | 1 nM | 0.000351 s⁻¹ | 350000 M⁻¹ s⁻¹ | B6
7 | 0.956 nM | 0.000434 s⁻¹ | 454000 M⁻¹ s⁻¹ | B7
8 | 0.684 nM | 0.000305 s⁻¹ | 446000 M⁻¹ s⁻¹ | B1
9 | 1.2 nM | 0.000338 s⁻¹ | 281000 M⁻¹ s⁻¹ | B8
10 | 1.12 nM | 0.000345 s⁻¹ | 309000 M⁻¹ s⁻¹ | B9
11 | 0.852 nM | 0.000288 s⁻¹ | 338000 M⁻¹ s⁻¹ | B10
12 | ≤ 0.0452 nM | ≤ 1e-05 s⁻¹ | 221000 M⁻¹ s⁻¹ | B2
13 | 0.542 nM | 0.00016 s⁻¹ | 295000 M⁻¹ s⁻¹ | B11
14 | 0.83 nM | 0.000611 s⁻¹ | 736000 M⁻¹ s⁻¹ | B12
15 | 0.435 nM | 0.000397 s⁻¹ | 913000 M⁻¹ s⁻¹ | B13

target: T2, CTLA4-Fc; assay: cell-based or functional assay

Row | IC50 (nM), Jurkat cell activation assay of Example 2 (IL-2) | Binder
16 | 8.7 nM | B1
17 | 3.1 nM | B2

target: T5, murine CTLA-4 (murine, UniProt P09793 36-161, limits assumed); assay: ELISA, murine CTLA-4 binding assay
T5 construct: ELISA antigen; construct not described; also called mouse CTLA-4

Row | binding result | Binder
18 | no binding | B14
19 | no binding | B15
20 | no binding | B16

target: T3, cyno Macaque CTLA-4; assay: ELISA, cyno CTLA-4 binding

Row | EC50 | Binder
21 | 0.045 nM | B14
22 | 0.01 nM | B15
23 | 0.054 nM | B16

target: T4, human CTLA-4; assay: ELISA, human CTLA-4 binding

Row | EC50 | Binder
24 | 0.049 nM | B14
25 | 0.077 nM | B15
26 | 0.026 nM | B16

target: T4, human CTLA-4; assay: ligand blocking assay with purified proteins; competitor CD86

Row | IC50 | Binder
27 | 0.271 nM | B14
28 | 1.61 nM | B15
29 | 0.369 nM | B16

target: T4, human CTLA-4; assay: ligand blocking assay with purified proteins; competitor CD80

Row | IC50 | Binder
30 | 0.641 nM | B14
31 | 12.8 nM | B15
32 | 0.822 nM | B16

target: T4, human CTLA-4; assay: ratio of the IC50 for blocking CD80 to the IC50 for blocking CD86 on CTLA-4

Row | CD80/CD86 Blocking Ratio | Binder
33 | 2.37 | B14
34 | 7.91 | B15
35 | 2.23 | B16

target: T2, CTLA4-Fc; assay: cell-based or functional assay; remark: another data set of the same source

Row | IC50 (nM), IL-2 secreted by Jurkat cells co-cultured with CHO/CD80 cells, Experiment 1 | IC50 (nM), IL-2 secreted by Jurkat cells co-cultured with CHO/CD80 cells, Experiment 2 | Binder
36 | 27.3 nM | 16.6 nM | B14
37 | 26.4 nM | 22.3 nM | B15
38 | 22.7 nM | 14.9 nM | B16

Source: patent US20200055937A1 (REMD BIOTHERAPEUTICS, published 2020)
